# Assay type: physicochemical
# From the text: Reaction of RGD with BMA[21,22] in a basic solution of DMF followed by semi-preparative reverse-phase C18 HPLC provided the diphosphine conjugate DP-RGD (Scheme 1) in ≥95% purity and 86% yield. DP-RGD was characterised by ^1H, ^13C and ^31P NMR, analytical HPLC and HR-ESI-MS (Fig. S1–S6 and Tables S1, S2 ^†).
smiles,measurement,value
N=C(N)NCCC[C@@H]1NC(=O)[C@H](CCCCNC(=O)/C(=C(\C(=O)O)P(c2ccccc2)c2ccccc2)P(c2ccccc2)c2ccccc2)NC(=O)[C@@H](Cc2ccccc2)NC(=O)[C@H](CC(=O)O)NC(=O)CNC1=O [DP-RGD],stability in acidic solutions (in words),decomposed to re-form RGD and BMA
same,stability to oxidation in solution (in words),slowly oxidised in solution to phosphine oxide derivatives
same,stability to oxidation in the solid state (in words),stable to oxidation

# Reference: PMC8594432, “One-step, kit-based radiopharmaceuticals for molecular SPECT imaging: a versatile diphosphine chelator for ^99mTc radiolabelling of peptides” (Dalton Transactions (Cambridge, England : 2003), 2021)
